Experimental data published in patent US20120316071A1 (published 2012).

Columns and labels:
[1] = target: T1, rHuman CD44/Fc Chimera, CF (R&D Systems Cat#3660-CD) (human, UniProt P16070 21-220); assay: ECL Multispot (MSD), antigen spotted; Fab 0.50 (µM); blank 142
T1 construct: Bought recombinant protein; Fc part of the bought chimera not given

[2] = target: T2, Recombinant Human DLL4 (R&D Systems Cat#1506-D4/CF) (human, UniProt Q9NR61 27-524); assay: Multispot ECL (MSD) assay, antigen spotted on plate, Fab at 0.312 µM; blank spot 1977
T2 construct: Bought recombinant protein; also called delta-like protein 4; rHuman DLL4

[3] = target: T3, rHuman ErbB2/Fc Chimera, CF (R&D Systems Cat#1129-ER) (human, UniProt P04626 23-652); assay: as above
T3 construct: Bought recombinant protein; also called human epidermal growth factor 2 receptor (ErbB2); Fc part of the bought chimera not given

[4] = target: T4, rHuman CD44/Fc Chimera, CF (R&D Systems Cat#3660-CD) (human, UniProt P16070 21-220); assay: as above
T4 construct: Bought recombinant protein; Fc part of the bought chimera not given

[5] = target: T5, rHuman Erythropoietin R/Fc Chimera, CF (R&D Systems Cat#963-ER) (human, UniProt P19235 25-250); assay: as above
T5 construct: Bought recombinant protein; also called EPO R/Fc; Epo R; Fc part of the bought chimera not given
T5 sequence (looked up): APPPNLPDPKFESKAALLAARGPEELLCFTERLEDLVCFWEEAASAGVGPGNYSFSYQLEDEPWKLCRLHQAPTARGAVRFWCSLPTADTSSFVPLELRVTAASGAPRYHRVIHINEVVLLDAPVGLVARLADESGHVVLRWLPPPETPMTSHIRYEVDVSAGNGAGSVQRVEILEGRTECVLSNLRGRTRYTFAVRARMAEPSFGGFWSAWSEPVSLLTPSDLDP

[6] = target: T6, rHuman P-Cadherin/Fc Chimera, CF (R&D Systems Cat#861-PC) (human, UniProt P22223 108-654); assay: as above
T6 construct: Bought recombinant protein; Fc part of the bought chimera not given

[7] = target: T7, rHuman IGF-1 sR, (IGF-1 sR), CF (R&D Systems Cat#391-GR) (human, UniProt P08069 31-932); assay: as above
T7 construct: Bought recombinant soluble receptor; also called insulin-like growth factor-1 soluble receptor

[8] = target: T8, rHuman Notch-1/Fc Chimera, CF (R&D Systems Cat#3647-TK) (human, UniProt P46531 19-526); assay: as above
T8 construct: Bought recombinant protein; Fc part of the bought chimera not given

[9] = target: T9, rHuman EGF R/Fc Chimera, CF (R&D Systems Cat#344-ER) (human, UniProt P00533 25-645); assay: as above
T9 construct: Bought recombinant protein; also called epidermal growth factor receptor (EGF R); Fc part of the bought chimera not given

[10] = target: T10, rHuman HGF R/c-MET/Fc Chimera, CF (R&D Systems Cat#358-MT/CF) (human, UniProt P08581 25-932); assay: as above
T10 construct: Bought recombinant protein; also called HGF R/Fc; hepatocyte growth factor receptor (HGF R/c-Met); Fc part of the bought chimera not given

[11] = target: T11, rHuman Erythropoietin R/Fc Chimera, CF (R&D Systems Cat#963-ER) (human, UniProt P19235 25-250); assay: Multispot ECL (MSD) titration; antigen spotted on plate; Fab 1570 nM; blank spot 866
T11 construct: Bought Fc chimera; also called EPO R/Fc; EPO R; Fc part of the bought chimera not given
T11 sequence (looked up): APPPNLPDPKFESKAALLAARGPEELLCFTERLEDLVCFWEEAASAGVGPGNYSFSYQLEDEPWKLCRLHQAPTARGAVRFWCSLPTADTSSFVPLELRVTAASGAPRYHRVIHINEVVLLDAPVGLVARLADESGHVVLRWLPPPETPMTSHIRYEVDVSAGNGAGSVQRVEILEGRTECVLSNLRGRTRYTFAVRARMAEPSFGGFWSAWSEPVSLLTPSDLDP

[12] = target: T12, rHuman ErbB2/Fc Chimera, CF (R&D Systems Cat#1129-ER) (human, UniProt P04626 23-652); assay: Multispot ECL (MSD) titration; antigen spotted on plate; Fab 58.1 nM; blank spot 225
T12 construct: Bought Fc chimera; also called human epidermal growth factor 2 receptor; Fc part of the bought chimera not given

[13] = target: T13, rHuman Notch-1/Fc Chimera, CF (R&D Systems Cat#3647-TK) (human, UniProt P46531 19-526); assay: as above
T13 construct: Bought Fc chimera; Fc part of the bought chimera not given

[14] = target: T11, rHuman Erythropoietin R/Fc Chimera, CF …; assay: as above
[15] = target: T14, rHuman P-Cadherin/Fc Chimera, CF (R&D Systems Cat#861-PC) (human, UniProt P22223 108-654); assay: as above
T14 construct: Bought Fc chimera; Fc part of the bought chimera not given

[16] = target: T15, Recombinant Human DLL4 (R&D Systems Cat#1506-D4/CF) (human, UniProt Q9NR61 27-524); assay: as above
T15 construct: Bought recombinant protein; also called delta-like protein 4; rHuman DLL4

[17] = target: T16, rHuman CD44/Fc Chimera, CF (R&D Systems Cat#3660-CD) (human, UniProt P16070 21-220); assay: as above
T16 construct: Bought Fc chimera; Fc part of the bought chimera not given

[18] = target: T17, rHuman IGF-1 sR (IGF-1 sR), CF (R&D Systems Cat#391-GR) (human, UniProt P08069 31-932); assay: as above
T17 construct: Bought soluble receptor; also called insulin-like growth factor-1 soluble receptor

T10 sequence (P08581 25-932, change not shown): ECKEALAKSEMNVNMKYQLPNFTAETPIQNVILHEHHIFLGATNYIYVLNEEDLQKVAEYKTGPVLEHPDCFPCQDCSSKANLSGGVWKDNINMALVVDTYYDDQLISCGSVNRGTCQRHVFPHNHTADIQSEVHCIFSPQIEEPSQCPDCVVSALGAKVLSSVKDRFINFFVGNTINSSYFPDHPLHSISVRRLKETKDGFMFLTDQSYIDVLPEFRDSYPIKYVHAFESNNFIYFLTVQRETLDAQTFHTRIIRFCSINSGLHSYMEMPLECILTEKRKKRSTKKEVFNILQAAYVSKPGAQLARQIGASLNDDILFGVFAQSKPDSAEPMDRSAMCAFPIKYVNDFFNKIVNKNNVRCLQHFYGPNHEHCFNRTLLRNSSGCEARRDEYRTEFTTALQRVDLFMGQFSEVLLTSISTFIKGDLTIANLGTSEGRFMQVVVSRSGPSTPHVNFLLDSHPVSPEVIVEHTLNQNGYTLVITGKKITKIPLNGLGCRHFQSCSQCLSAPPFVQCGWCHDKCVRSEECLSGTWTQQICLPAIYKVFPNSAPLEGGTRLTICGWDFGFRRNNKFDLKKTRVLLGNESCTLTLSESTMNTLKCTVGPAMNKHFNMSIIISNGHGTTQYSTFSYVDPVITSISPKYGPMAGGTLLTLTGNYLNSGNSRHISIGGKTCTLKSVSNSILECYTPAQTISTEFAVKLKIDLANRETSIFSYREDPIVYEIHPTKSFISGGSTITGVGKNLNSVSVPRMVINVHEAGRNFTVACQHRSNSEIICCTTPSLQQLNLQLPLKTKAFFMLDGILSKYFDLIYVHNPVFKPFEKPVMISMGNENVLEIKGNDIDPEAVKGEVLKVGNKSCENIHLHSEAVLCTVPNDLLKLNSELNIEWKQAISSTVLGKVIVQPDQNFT

B1: Fab VH1-46_IGHD6-6*01_IGHJ1*01 S102A/S103P/S104F (APF) & L6_IGKJ1*01 (Fab, V domains shown)
VH: QVQLVQSGAEVKKPGASVKVSCKASGYTFTSYYMHWVRQAPGQGLEWMGIINPSGGSTSYAQKFQGRVTMTRDTSTSTVYMELSSLRSEDTAVYYCAREEYAPFSAEYFQHWGQGTLVTVSS
VL: not shown
notes: Tested as a Fab made in E. coli: VH cloned in Plasmid A (CH1 constant region, His6 and Flag tags), VL in Plasmid C (kappa constant region); also called H:APF & L:wt; APF triple mutant
For B1, the ECL signal [1] was 207.

B2: Fab VH1-46_IGHD7-27*01_IGHJ2*01 & L6_IGKJ1*01 (Fab, V domains shown)
VH: QVQLVQSGAEVKKPGASVKVSCKASGYTFTSYYMHWVRQAPGQGLEWMGIINPSGGSTSYAQKFQGRVTMTRDTSTSTVYMELSSLRSEDTAVYYCARANWGYWYFDLWGRGTLVTVSS
VL: not shown
notes: Germline Fab made in E. coli; VH was cloned in Plasmid A (CH1 constant region, His6 and Flag tags) and the kappa VL in Plasmid C (kappa CL); Only the variable domains are tied to this Fab by name
With B2 the ECL signal [2] was 5480, the ECL signal [3] was 3660 and the ECL signal [4] was 4170. The ECL signal [5] was 5020, the ECL signal [6] was 7100 and the ECL signal [7] was 3510. It also gave an ECL signal [8] of 4460, an ECL signal [9] of 4330 and an ECL signal [10] of 4690.

B3: Fab VH1-46_IGHD3-10*01_IGHJ4*01 & O1_IGKJ1*01 (Fab, V domains shown)
VH: QVQLVQSGAEVKKPGASVKVSCKASGYTFTSYYMHWVRQAPGQGLEWMGIINPSGGSTSYAQKFQGRVTMTRDTSTSTVYMELSSLRSEDTAVYYCAREYYYGSGSYYNDYFDYWGQGTLVTVSS
VL: DIVMTQTPLSLPVTPGEPASISCRSSQSLLDSDDGNTYLDWYLQKPGQSPQLLIYTLSYRASGVPDRFSGSGSGTDFTLKISRVEAEDVGVYYCMQRIEFPSWTFGQGTKVEIKR
notes: Germline library Fab expressed in E. coli; VH was cloned into Plasmid A (CH1 constant region, His6 and Flag tags); The kappa VL was cloned into Plasmid C (kappa CL)
B3 gave an ECL signal [11] of 6120.

B4: Fab VH1-46_IGHD6-13*01_IGHJ4*01 & O1_IGKJ1*01 (Fab, V domains shown)
VH: QVQLVQSGAEVKKPGASVKVSCKASGYTFTSYYMHWVRQAPGQGLEWMGIINPSGGSTSYAQKFQGRVTMTRDTSTSTVYMELSSLRSEDTAVYYCAREGYSSSWYDYFDYWGQGTLVTVSS
VL: DIVMTQTPLSLPVTPGEPASISCRSSQSLLDSDDGNTYLDWYLQKPGQSPQLLIYTLSYRASGVPDRFSGSGSGTDFTLKISRVEAEDVGVYYCMQRIEFPSWTFGQGTKVEIKR
notes: as for B3
Work on B4 yielded an ECL signal [12] of 322, an ECL signal [13] of 388 and an ECL signal [14] of 829. For the same binder, the ECL signal [15] was 478, the ECL signal [16] was 1880 and the ECL signal [17] was 375. The ECL signal [18] was 343.
